Assay results: PMC10397247
Where two headings read alike, the source gives them in different places. Values belong to the binder of their own block, whether it stands above or below them.

What was measured:
4H953-bN = target: T1, 4H953-bN; assay: two-hybrid library CCNG1;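 note: natural log of median RNA to DNA barcode read ratio; higher means stronger binding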
T1 chain: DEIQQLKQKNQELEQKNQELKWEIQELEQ

4H968-bN = target: T2, 4H968-bN; assay: two-hybrid library CCNG1;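 note: natural log of median RNA to DNA barcode read ratio; higher means stronger binding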
T2 chain: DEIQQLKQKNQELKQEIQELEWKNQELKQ

4H967-bN = target: T3, 4H967-bN; assay: two-hybrid library CCNG1;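 note: natural log of median RNA to DNA barcode read ratio; higher means stronger binding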
T3 chain: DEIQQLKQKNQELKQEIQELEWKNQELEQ

4H971-AA = target: T4, 4H971-AA; assay: two-hybrid library CCmax; conditions: mean of both orientations;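 note: natural log of median RNA to DNA barcode read ratio; higher means stronger binding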
T4 chain: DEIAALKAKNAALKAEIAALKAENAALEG

4H391-AA = target: T5, 4H391-AA; assay: two-hybrid library CCmax; conditions: mean of both orientations;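 note: natural log of median RNA to DNA barcode read ratio; higher means stronger binding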
T5 chain: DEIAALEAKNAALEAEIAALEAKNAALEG

4H656-AA = target: T6, 4H656-AA; assay: two-hybrid library CCmax; conditions: mean of both orientations;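 note: natural log of median RNA to DNA barcode read ratio; higher means stronger binding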
T6 chain: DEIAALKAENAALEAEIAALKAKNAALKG

4H428-AA = target: T7, 4H428-AA; assay: two-hybrid library CCmax; conditions: mean of both orientations
T7 chain: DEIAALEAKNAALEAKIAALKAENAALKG

4H497-AA = target: T8, 4H497-AA; assay: two-hybrid library CCmax; conditions: mean of both orientations
T8 chain: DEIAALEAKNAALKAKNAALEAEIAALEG

4H3709-AA = target: T9, 4H3709-AA; assay: two-hybrid library CCmax
T9 chain: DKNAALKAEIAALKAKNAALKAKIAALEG

4H478-AA = target: T10, 4H478-AA; assay: two-hybrid library CCmax; conditions: mean of both orientations
T10 chain: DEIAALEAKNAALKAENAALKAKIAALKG

4H675-AA = target: T11, 4H675-AA; assay: two-hybrid library CCmax; conditions: mean of both orientations
T11 chain: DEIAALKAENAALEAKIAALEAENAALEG

4H3939-AA = target: T12, 4H3939-AA; assay: two-hybrid library CCmax
T12 chain: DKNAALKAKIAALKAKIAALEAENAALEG

4H3920-AA = target: T13, 4H3920-AA; assay: two-hybrid library CCmax; conditions: mean of both orientations
T13 chain: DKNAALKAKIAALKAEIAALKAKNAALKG

APC9182-AA = target: T14, APC9182-AA; assay: two-hybrid library CCmax; conditions: mean of both orientations
T14 chain: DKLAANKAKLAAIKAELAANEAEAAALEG

APC9806-AA = target: T15, APC9806-AA; assay: two-hybrid library CCmax; conditions: mean of both orientations
T15 chain: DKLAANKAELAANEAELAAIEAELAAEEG

APC9291-AA = target: T16, APC9291-AA; assay: two-hybrid library CCmax; conditions: mean of both orientations
T16 chain: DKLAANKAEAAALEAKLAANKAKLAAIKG

APC9141-AA = target: T17, APC9141-AA; assay: two-hybrid library CCmax
T17 chain: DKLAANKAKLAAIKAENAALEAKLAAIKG

APC8516-AA = target: T18, APC8516-AA; assay: two-hybrid library CCmax
T18 chain: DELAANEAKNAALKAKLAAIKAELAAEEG

4H_BCR = target: T19, 4H_BCR; assay: two-hybrid library CCmax; conditions: mean of both orientations
T19 chain: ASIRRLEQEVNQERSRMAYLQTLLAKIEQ

GCN2_T = assay: two-hybrid library CCmax
O14-AA = target: T20, O14-AA; assay: two-hybrid library CCmax; conditions: mean of both orientations
T20 chain: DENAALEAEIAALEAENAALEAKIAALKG

4H510-AA = target: T21, 4H510-AA; assay: two-hybrid library CCmax; conditions: mean of both orientations
T21 chain: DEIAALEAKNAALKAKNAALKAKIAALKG

O13-AA = target: T22, O13-AA; assay: two-hybrid library CCmax; conditions: mean of both orientations
T22 chain: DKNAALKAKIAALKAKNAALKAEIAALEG

4H_APH = target: T23, 4H_APH; assay: two-hybrid library CCmax
T23 chain: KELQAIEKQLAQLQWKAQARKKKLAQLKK

4H_GCN4 = assay: two-hybrid library CCmax
Sequence of 4H_GCN4 (chain, as listed by the source): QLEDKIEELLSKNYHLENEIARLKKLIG

O11-AA = target: T24, O11-AA; assay: two-hybrid library CCmax; conditions: mean of both orientations
T24 chain: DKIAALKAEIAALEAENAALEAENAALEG

4H968-bA = target: T25, 4H968-bA; assay: two-hybrid library CCNG1
T25 chain: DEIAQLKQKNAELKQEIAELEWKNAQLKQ

4H3969-AA = target: T26, 4H3969-AA; assay: two-hybrid library CCmax
T26 chain: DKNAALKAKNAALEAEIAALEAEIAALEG

4H446-AA = target: T27, 4H446-AA; assay: two-hybrid library CCmax; conditions: mean of both orientations
T27 chain: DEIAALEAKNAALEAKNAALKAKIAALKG

4H483-AA = target: T28, 4H483-AA; assay: two-hybrid library CCmax; conditions: mean of both orientations
T28 chain: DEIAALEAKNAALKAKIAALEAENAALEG

4H464-AA = target: T29, 4H464-AA; assay: two-hybrid library CCmax; conditions: mean of both orientations
T29 chain: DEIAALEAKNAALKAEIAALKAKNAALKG

4H63-AA = target: T30, 4H63-AA; assay: two-hybrid library CCmax; conditions: mean of both orientations
T30 chain: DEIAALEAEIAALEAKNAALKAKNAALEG

4H3666-AA = target: T31, 4H3666-AA; assay: two-hybrid library CCmax
T31 chain: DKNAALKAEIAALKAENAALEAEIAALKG

4H953-bA = target: T32, 4H953-bA; assay: two-hybrid library CCNG1
T32 chain: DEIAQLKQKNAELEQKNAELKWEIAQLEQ

4H918-bA = target: T33, 4H918-bA; assay: two-hybrid library CCNG1
T33 chain: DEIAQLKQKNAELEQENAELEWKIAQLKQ

4H967-bA = target: T34, 4H967-bA; assay: two-hybrid library CCNG1
T34 chain: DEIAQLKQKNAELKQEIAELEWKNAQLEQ

- interaction score (4H953-bN): -1.67
- interaction score (4H968-bN): -1.24
- interaction score (4H967-bN): -1.76
B1: 4H953-bN (peptide)
chain: DEIQQLKQKNQELEQKNQELKWEIQELEQ

- interaction score (4H971-AA): -1.69
- interaction score (4H391-AA): -1.04
- interaction score (4H656-AA): 0.489
- interaction score (4H428-AA): -2.58
- interaction score (4H497-AA): -1.73
- interaction score (4H3709-AA): 0.066
- interaction score (4H478-AA): -0.647
- interaction score (4H675-AA): 1.6
- interaction score (4H3939-AA; mean of both orientations): -2.03
- interaction score (4H3920-AA): -1.81
B2: 4H3709-AA (peptide)
chain: DKNAALKAEIAALKAKNAALKAKIAALEG

- interaction score (4H968-bN): 0.264
B3: 4H968-bN (peptide)
chain: DEIQQLKQKNQELKQEIQELEWKNQELKQ

- interaction score (APC9182-AA): -1.64
- interaction score (APC9806-AA): -1.63
- interaction score (APC9291-AA): -1.91
- interaction score (APC9141-AA; mean of both orientations): -1.56
- interaction score (APC8516-AA): -1.87
B4: APC8516-AA (peptide)
chain: DELAANEAKNAALKAKLAAIKAELAAEEG

- interaction score (4H_BCR): -1.98
- interaction score (GCN2_T): -0.954
- interaction score (O14-AA): 0.209
- interaction score (4H510-AA): -1.68
- interaction score (O13-AA): -1.74
- interaction score (4H_APH): -1.88
- interaction score (4H_GCN4): -1.53
- interaction score (O11-AA): -1.9
B5: 4H451-AA (peptide)
chain: DEIAALEAKNAALKAEIAALEAENAALEG

- interaction score (APC9182-AA): -1.82
- interaction score (APC9806-AA): -1.67
- interaction score (APC9291-AA): -1.86
- interaction score (APC9141-AA): -2.08
B6: APC9141-AA (peptide)
chain: DKLAANKAKLAAIKAENAALEAKLAAIKG

- interaction score (4H968-bA): -1.46
B7: 4H968-bA (peptide)
chain: DEIAQLKQKNAELKQEIAELEWKNAQLKQ

- interaction score (4H3969-AA): -1.61
- interaction score (4H446-AA): 1.05
- interaction score (4H483-AA): -1.99
- interaction score (4H464-AA): -0.91
- interaction score (4H63-AA): -1.93
B8: 4H3969-AA (peptide)
chain: DKNAALKAKNAALEAEIAALEAEIAALEG

- interaction score (4H971-AA): 1.3
- interaction score (4H391-AA): -1.26
- interaction score (4H656-AA): 0.306
- interaction score (4H428-AA): -1.27
- interaction score (4H497-AA): -1.84
- interaction score (4H3709-AA; mean of both orientations): 1.48
- interaction score (4H3666-AA): 0.925
- interaction score (4H478-AA): 0.407
- interaction score (4H675-AA): -2.19
- interaction score (4H3939-AA; mean of both orientations): -1.61
- interaction score (4H3920-AA): -1.45
B9: 4H3666-AA (peptide)
chain: DKNAALKAEIAALKAENAALEAEIAALKG

- interaction score (4H968-bA): -0.293
- interaction score (4H953-bA): 1.53
- interaction score (4H918-bA): 0.453
- interaction score (4H967-bA): -0.684
B10: 4H918-bA (peptide)
chain: DEIAQLKQKNAELEQENAELEWKIAQLKQ

- interaction score (4H3969-AA; mean of both orientations): -0.371
- interaction score (4H971-AA): -1.81
- interaction score (4H656-AA): -0.924
- interaction score (4H428-AA): -1.64
- interaction score (4H497-AA): -1.92
- interaction score (4H478-AA): -1.63
- interaction score (4H446-AA): -0.459
- interaction score (4H675-AA): -1.53
- interaction score (4H483-AA): -2.02
- interaction score (4H464-AA): -1.97
- interaction score (4H3939-AA): -1.07
- interaction score (4H63-AA): 1.57
B11: 4H3939-AA (peptide)
chain: DKNAALKAKIAALKAKIAALEAENAALEG
